B1: Purified EGFL7 (SPRimager II experiments and blocking study) (natural protein)
chain: YRPGRRVCAVRAHGDPVSESFVQRVYQPFLTTCDGHRACSTYRTIYRTAYRRSPGLAPARPRYACCPGWKRTSGLPGACGAAICQPPCRNGGSCVQPGRCRCPAGWRGDTCQSDVDECSARRGGCPQRCVNTAGSYWCQCWEGHSLSADGTLCVPKGGPPRVAPNPTGVDSAMKEEVQRLQSRVDLLEEKLQLVLAPLHSLASQALEHGLPDPGSLLVHSFQQLGRIDSLSEQISFLEEQLGSCSCKKDS

Experiments:
[1] = biological target: Purified recombinant EGFL7 (Sino Biological Inc.) (human) (UniProt Q9UHF1); experiment: SPR
[2] = biological target: Fluorescein-labeled E7p72; experiment: flow cytometry on cells
[3] = biological target: E7p74, re-synthesized with a Cys for the SPR chip; experiment: SPR
[4] = biological target: E7p72, re-synthesized with a Cys for the SPR chip; experiment: SPR

| Molecule | koff [1] [s⁻¹] | percent decrease in the uptake of FITC-E7p72 by EA.hy926 cells with 3x EGFL7 [2] [%] | Kd [3] [nM] | Kd [4] [nM] |
| --- | --- | --- | --- | --- |
| A647-CPMV-PEG viral nanoparticle (control) | 0.00124 | – | – | – |
| B1 | – | 64.5 | 14.3 | 13.2 |

Source: publication PMC5770569
